Assay results from paper PMC10449631 (Nature Chemical Biology, 2023).
Where “and” joins values, the source holds several entries; their conditions need not be identical. Equal values may be shown once. Positions of bridges follow the written chain, without caps; N, C: chain ends. Residues, ends and D or L forms follow the SMILES beside them. No end group written: not given here.

What was measured:
PaAP [1] = target: T1, PaAP (Pseudomonas aeruginosa, UniProt Q02PA2, A513L/Q514V/S515P); experiment: Peptide digestion assay (overnight and time course, LC-MS/MALDI); format: biochemical; details: for P0 (parent peptide, LC–MS signal): 500 μM peptide, 1 μM PaAP_T, listed as ERWGHDFIK-NH3
T1 construct: PaAP (WT, residues 27–536); His6 (TEV cleavable) (N, cleaved yes); made in house; host or cells: E. coli SHuffle T7
Procedure: A variety of peptides of varying lengths and compositions were incubated with PaAP at room temperature. Assays were performed by incubating (overnight at room temperature) 500 μM of substrate (peptides) with 1 μM enzyme (PaAP) in reaction buffer (50 mM Tris, pH 8.5, 100 mM NaCl). The reactions were quenched by heating to 100 °C for 10 min followed by centrifugation at 17,000g in a benchtop centrifuge to remove precipitate. Supernatant was collected and samples were analyzed by LC–MS. Initial trial assays were carried out in the presence and absence (control) of enzyme to determine if the substrate was degraded (single or triplicate experiments). Time-course assays were performed on selected peptide substrates in triplicate. A 300 μl reaction (including 500 μM of substrate) was initiated by the addition of 1 μM enzyme. The reaction was incubated at room temperature. The reaction was quenched at set timepoints by the removal of 30 μl aliquots, which were immediately heated to 100 °C for 10 min. The samples were analyzed by LC–MS using a Xevo Q-ToF (Waters) as described below, searching for masses of all peptide breakdown products.
Peptide degradation time courses were fitted to exponential equations as follows:
P0 peptide consumption was fitted to a single exponential equation (equation (2)) with the format2 yt=y0−Plateaue^−kt+Plateau
Time courses for the formation and decay of peptide intermediates were fitted to double exponential equations (equation (3)) and single exponential equations, followed by a linear phase (4)3 yt=y0−Plateau1e^−k1t+y0−Plateau2e^−k2t+Plateau 4 yt=y0−Plateaue^−kt+vt+Plateau where y(t) is the product formed at time t, y0 − Plateau is the amplitude of the exponential phase, k is the observed rate constant for the exponential phase, y0 is the value of y at time 0, Plateau is the value of y after exponential phase, C is the offset and v is the slope of the linear phase.
Peptide samples incubated in the presence and absence of PaAP were initially analyzed by MALDI. The peptide sample (0.5 µl at 10 µM) was spotted along with matrix (0.5 µl 10 mg ml^−1 α-cyano-4-hydroxycinnamic acid in ACN/0.1% TFA (50/50, vol/vol)) on a stainless steel MALDI plate and left to dry. The sample plate was loaded into a Sciex 4800 MALDI mass spectrometer. The laser voltage was adjusted to give a good signal to noise strength, and 50 shots were acquired in a random pattern across the spot and spectra combined. The spectra were externally calibrated with Sciex Pepcal mix (range: 500–4,000 m/z).

[2] = target: T2, PaAP_T (P. aeruginosa aminopeptidase, C-terminal truncated) (Pseudomonas aeruginosa, UniProt Q02PA2); experiment: Inhibition of PaAP_T in the Leu-pNA aminopeptidase assay (KI, IC50); format: biochemical; details: for IC50 plot data (PaAP_T activity at given peptide concentration): (S) = 2 mM, PaAP 100 nM, listed as ERWGHDFIK-NH3
T2 construct: PaAP (WT, residues 27–536); His6 (TEV cleavable) (N, cleaved yes); made in house; host or cells: E. coli SHuffle T7
T2 sequence (Q02PA2 whole entry, looked up): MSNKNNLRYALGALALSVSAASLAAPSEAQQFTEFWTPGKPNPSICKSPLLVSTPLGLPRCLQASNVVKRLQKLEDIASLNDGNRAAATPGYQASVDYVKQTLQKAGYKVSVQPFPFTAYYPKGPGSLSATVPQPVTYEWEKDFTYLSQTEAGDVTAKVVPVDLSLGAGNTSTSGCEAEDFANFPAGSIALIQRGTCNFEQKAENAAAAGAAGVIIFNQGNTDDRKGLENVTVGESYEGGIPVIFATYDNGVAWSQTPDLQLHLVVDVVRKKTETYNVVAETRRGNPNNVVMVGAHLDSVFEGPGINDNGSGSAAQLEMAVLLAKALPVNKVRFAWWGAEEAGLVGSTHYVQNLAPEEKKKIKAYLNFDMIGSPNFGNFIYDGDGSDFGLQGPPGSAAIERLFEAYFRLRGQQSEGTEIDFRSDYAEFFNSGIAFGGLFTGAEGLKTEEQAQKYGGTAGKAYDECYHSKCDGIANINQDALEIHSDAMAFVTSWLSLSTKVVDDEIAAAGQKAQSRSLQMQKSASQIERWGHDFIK
Procedure: (§1) Aminopeptidase activity was determined spectrophotometrically primarily using amino Leu-pNA. Other commercially available pNA substrates (isoleucine, methionine, alanine, valine, proline, arginine, lysine and phenylalanine) were also assayed. Leu-pNA was incubated with enzyme (100 nM) in assay buffer (50 mM Tris, pH 8.5, 200 mM NaCl) at 25 °C. A pNA release caused an absorbance increase at 405 nm, monitored using a BMG Labtech plate reader. […] Data were plotted in GraphPad Prism (version 9) and the Michalis Menten equation was used for fitting.
(§2) Inhibition assays were carried out with the following peptides: linear-ERWGHDFIK (PaAP C-terminal residues), cyclic-ERWGHDFIK, N-acetylated and C-amidated ERWGHDFIK. IC50 values were determined by varying peptide concentration at a fixed substrate concentration (fixed at KM, (S) = 2 mM, PaAP concentration was 100 nM). […] KI values were determined by fitting the data to equation (1) (Morrison’s equation):1 v=1−Et+I+KI−Et+I+KI^2−4EtIKI/2Et where v is the velocity, Et is the total enzyme concentration, I is the concentration of inhibitor and KI is the equilibrium dissociation constant for the inhibitor. IC50 values increased when measured at increasing S, consistent with competitive inhibition.

[3] = target: T3, PaAP_T (P. aeruginosa aminopeptidase, C-terminal truncated) (Pseudomonas aeruginosa, UniProt Q02PA2); experiment: as above; format: biochemical
T3 construct: PaAP (WT, residues 27–536); His6 (TEV cleavable) (N, cleaved yes); made in house; host or cells: E. coli SHuffle T7
Procedure: as §1, §2

in vitro = in vitro ADME, Pseudomonas aeruginosa; details: cells or culture medium; after 48 h growth; read-out: peptide remaining in solution
Procedure: Supplementary Figure 19. Stability of cyclic-ERWGHDFIK
The stability of cyclic-ERWGHDFIK was tested by incubating in LB media +/- inoculation with PA14 Pseudomonas aeruginosa. Samples were taken at set timepoints over a 48 hour time period, quenched and analysed by LC-MS. % of cyclic-ERWGHDFIK remaining was calculated by comparing integrated peak areas to the 0 time point. n=1 […]
(1 picture or pasted object on this page, not shown here)

PaAP_T [4] = target: T4, PaAP_T (Pseudomonas aeruginosa, UniProt Q02PA2); experiment: Enzymatic assay with amino acid-pNA substrates (kcat, KM); format: biochemical; details: amino acid–pNA substrate
T4 construct: PaAP (WT, residues 27–536); His6 (TEV cleavable) (N, cleaved yes); made in house; host or cells: E. coli SHuffle T7
Procedure: as §1

PaAP [5] = experiment: PaAP in reaction buffer (50 mM Tris, pH 8.5, 100 mM NaCl); details: P. aeruginosa, room temperature, up to overnight
PaAP [6] = tested on: PaAP; design: method as in PMID 30894675; details: impacted the activity of PaAP in vivo; cited from earlier work
PaAP_T [7] = experiment: PaAP_T in reaction buffer (50 mM Tris, pH 8.5, 100 mM NaCl), time course; details: P. aeruginosa, room temperature, up to 1220 minutes
PaAP_T [8] = experiment: reaction buffer (50 mM Tris, pH 8.5, 100 mM NaCl), time-course assay; details: Pseudomonas aeruginosa (recombinant enzyme), room temperature, up to 1220 min

T1 sequence (Q02PA2 37-516 A513L/Q514V/S515P): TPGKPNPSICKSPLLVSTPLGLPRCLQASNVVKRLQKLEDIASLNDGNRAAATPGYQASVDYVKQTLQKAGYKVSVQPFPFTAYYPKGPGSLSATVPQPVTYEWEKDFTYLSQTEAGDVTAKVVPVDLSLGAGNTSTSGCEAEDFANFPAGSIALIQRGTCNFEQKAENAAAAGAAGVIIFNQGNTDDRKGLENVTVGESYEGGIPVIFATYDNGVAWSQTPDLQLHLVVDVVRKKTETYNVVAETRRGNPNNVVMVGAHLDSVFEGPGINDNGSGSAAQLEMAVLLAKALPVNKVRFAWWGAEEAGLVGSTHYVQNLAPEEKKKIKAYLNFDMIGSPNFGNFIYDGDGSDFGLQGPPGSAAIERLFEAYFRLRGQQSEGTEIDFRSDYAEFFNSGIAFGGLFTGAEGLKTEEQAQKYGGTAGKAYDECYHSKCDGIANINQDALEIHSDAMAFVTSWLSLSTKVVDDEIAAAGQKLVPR

ERWGHDFIK-NH2: ERWGHDFIK peptide harboring a C-terminal amide
substrate of / degraded by PaAP (words) (PaAP [1]; incubated with PaAP overnight, LC–MS or MALDI, listed as ERWEGHDFIK-NH3): good substrate | P0 (parent peptide, LC–MS signal) (PaAP [1]; time 0 minutes): 747781 and 703178 and 683749 | P0 (parent peptide, LC–MS signal) (PaAP [1]; time 5 minutes): 717720 and 659374 and 657747 | P0 (parent peptide, LC–MS signal) (PaAP [1]; time 10 minutes): 666366 and 611681 and 573626 | P0 (parent peptide, LC–MS signal) (PaAP [1]; time 30 minutes): 456167 and 415831 and 416655 | P0 (parent peptide, LC–MS signal) (PaAP [1]; time 60 minutes): 206401 and 213826 and 168991 | P0 (parent peptide, LC–MS signal) (PaAP [1]; time 90 minutes): 48119.3 and 55308.2 and 38290.8 | P0 (parent peptide, LC–MS signal) (PaAP [1]; time 120 minutes): 7764.71 and 8223.82 and 5808.71 | P0 (parent peptide, LC–MS signal) (PaAP [1]; time 180 minutes): 323.386 and 411.426 and 320.297 | relative rate of degradation by PaAP (PaAP [1]; time-course assay, LC–MS): processed at a faster rate than unmodified ERWGHDFIK | IC50 relative to unmodified linear ERWGHDFIK ([2]; Leu-pNA assay): increased IC50 value | inhibition of PaAP_T ([2]; Leu-pNA assay): very poor inhibitors | IC50 plot data (PaAP_T activity at given peptide concentration) ([2]; log(I) 0): 100.509 and 101.823 and 100.804 | IC50 plot data (PaAP_T activity at given peptide concentration) ([2]; log(I) 0.39794): 100.885 and 102.922 and 101.877 | IC50 plot data (PaAP_T activity at given peptide concentration) ([2]; log(I) 0.69897): 100.054 and 101.233 and 108.07 | IC50 plot data (PaAP_T activity at given peptide concentration) ([2]; log(I) 1): 99.2493 and 105.174 and 106.059 | IC50 plot data (PaAP_T activity at given peptide concentration) ([2]; log(I) 1.39794): 96.4075 and 101.34 and 94.2091 | IC50 plot data (PaAP_T activity at given peptide concentration) ([2]; log(I) 1.69897): 90.5898 and 93.2172 and 95.2547 | IC50 plot data (PaAP_T activity at given peptide concentration) ([2]; log(I) 2): 71.9303 and 76.8365 and 72.5737 | IC50 plot data (PaAP_T activity at given peptide concentration) ([2]; log(I) 2.39794): 36.7024 and 39.9464 and 37.7748 | IC50 plot data (PaAP_T activity at given peptide concentration) ([2]; log(I) -0.30103): 101.126 and 105.737 and 97.1046 | IC50 plot data (PaAP_T activity at given peptide concentration) ([2]; log(I) -0.60206): 99.866 and 101.85 and 100.456 | IC50 plot data (PaAP_T activity at given peptide concentration) ([2]; log(I) -1): 101.475 and 103.619 and 100.617 | IC50 plot data (PaAP_T activity at given peptide concentration) ([2]; log(I) -1.30103): 101.126 and 99.5174 and 100.483

CC[C@H](C)[C@@H]1NC(=O)[C@H](Cc2ccccc2)NC(=O)[C@H](CC(=O)O)NC(=O)[C@H](Cc2c[nH]cn2)NC(=O)CNC(=O)[C@H](Cc2c[nH]c3ccccc23)NC(=O)[C@H](CCCNC(=N)N)NC(=O)[C@@H](N)CCC(=O)NCCCC[C@@H](C(=O)O)NC1=O [cyclic-ERWGHDFIK] (H-ERWGHDFIK-OH; lactam 1-9)
Ki [3]: 0.0228 µM | remaining at 48 h (in vitro): > 60%

CC(C)C[C@H](N)C(=O)Nc1ccc([N+](=O)[O-])cc1 [Leu-pNA]
kcat (PaAP_T [4]): 11.5 s⁻¹

cyclic-ERWGHDFIK cyclized by isopeptide bond
not cleaved (PaAP [5]): not degraded when incubated overnight with PaAP

O=C(O)CCNC(=O)c1ccc(/N=N/c2ccc(O)c(C(=O)O)c2)cc1 [Balsalazide]
effect on biofilm (PaAP [6]): anti-biofilm phenotype

HCATIPAFDG
fragment found (PaAP_T [7]): products from P-5, major | fragment found (PaAP_T [8]): products from P-5, major

CC(C)[C@H](N)C(=O)Nc1ccc([N+](=O)[O-])cc1 [Val-pNA]
kcat (PaAP_T [4]): 0.115 s⁻¹

Ac-ERWGHDFIK
not cleaved (PaAP [5]): not a substrate

NCCCC[C@H](N)C(=O)Nc1ccc([N+](=O)[O-])cc1 [Lys-pNA]
kcat (PaAP_T [4]): 4.13 s⁻¹
